Data as given in PMC5446181.
One block for each molecule: values may come before it.

Key:
[1] = molecular target: TChz, truncated recognition fragment (middle region, MoRF) of the histone chaperone Chz1 (UniProt P40019); test: ITC; 200 uM TBZ_(Y139W) injected into 20 uM TChz, 298 K, NANO-ITC, 1:1 isothermal binding model
[2] = molecular target: TBZ_(Y139W), tryptophan variant (pseudo-WT) of the H2A.Z-H2B linked fragment; test: stopped-flow fluorescence; TChz 4, 6, 8, 12, 20 uM mixed with 2 uM TBZ_(Y139W), 0.01 M PBS, 25 C, excitation 290 nm, 320 nm cutoff filter; global numerical fit to a two-step induced-fit model

- Kd [1]: 330 nM
- dH [1]: -8.14 kcal/mol
- stoichiometry N [1]: 0.97
Molecule: TBZ_(Y139W), tryptophan variant (pseudo-WT) of the H2A.Z-H2B linked fragment (domain or fragment)

- k1+ (first step, association to the intermediate, induced-fit model) [2]: 6.78e+06 M⁻¹ s⁻¹
- k1− (first step, dissociation of the intermediate, induced-fit model) [2]: 53.4 s⁻¹
- k2+ as the column head prints it a second time (taken as k2−, second step reverse, induced-fit model) [2]: 9.88 s⁻¹
B1: TChz, truncated recognition fragment (middle region, MoRF) of the histone chaperone Chz1 (domain or fragment)
chain: DMDDAKLDALMGNEGEEEEDDLAEIDTSNIITSGRRTRGKVIDYKKTAEELDKKEPSTGSKD
